Experimental data reported in patent publication US20190352387A1 (Chugai, published 2019).
Substitutions are numbered along the chain they refer to.

T1: Recombinant mouse sclerostin (mouse, UniProt Q99P68 24-211)
T1 sequence: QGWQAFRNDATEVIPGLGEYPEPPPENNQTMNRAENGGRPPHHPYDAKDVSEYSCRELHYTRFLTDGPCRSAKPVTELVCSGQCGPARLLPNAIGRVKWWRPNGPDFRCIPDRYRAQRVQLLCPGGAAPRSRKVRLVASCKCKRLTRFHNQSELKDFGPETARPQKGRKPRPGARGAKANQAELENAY

T2: Recombinant cynomolgus monkey sclerostin (cynomolgus monkey, UniProt Q9BG78 24-213 (Chlorocebus aethiops entry))
T2 construct: Whole entry as named; expressed and purified as the human counterpart; also called cyno-SOST; cyno SOST
T2 chain: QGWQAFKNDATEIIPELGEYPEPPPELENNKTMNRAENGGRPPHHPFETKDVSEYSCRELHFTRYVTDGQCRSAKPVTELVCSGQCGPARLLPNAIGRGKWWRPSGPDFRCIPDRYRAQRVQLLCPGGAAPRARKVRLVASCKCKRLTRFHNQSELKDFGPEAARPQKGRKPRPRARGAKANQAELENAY

T3: Recombinant human sclerostin (human, UniProt Q9BQB4 24-213)
T3 construct: Whole entry as named; Secreted recombinant protein purified from FreeStyle293-F conditioned medium; also called human-SOST; Human SOST
T3 sequence: T2 chain with Q70P, A129E, P161T, G178S

T4: Recombinant rat sclerostin (rat, UniProt Q99P67 29-213)
T4 construct: Whole entry as named; also called rat-SOST
T4 sequence: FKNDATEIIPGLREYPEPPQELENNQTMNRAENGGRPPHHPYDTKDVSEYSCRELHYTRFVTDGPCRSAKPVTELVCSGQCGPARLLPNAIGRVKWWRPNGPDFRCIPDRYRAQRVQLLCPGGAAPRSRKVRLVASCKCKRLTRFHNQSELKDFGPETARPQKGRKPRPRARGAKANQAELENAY

B1: mabA_NpH3-SG2 (antibody, human IgG2, kappa, V domains shown)
VH: EVQLVQSGAEVKKPGASVKVSCKASGYTFTDYNMHWVRQAPGQGLEWMGEINPNSGGAGYNQKFKGRVTMTTDTSTSTAYMELRSLRSDDTAVYYCARLGYDDIYDDWYFDVWGQGTTVTVSS
VL: DIQMTQSPSSLSASVGDRVTITCRASQDISNYLNWYQQKPGKAPKLLIYYHSRLLSGVPSRFSGSGSGTDFTLTISSLQPEDFATYYCHQGDTLPYTFGGGTKVEIKR
B2: mabB//mabA_pH3 (bispecific antibody, V domains shown)
VH 1: QVQLVQSGAEVKKPGASVKVSCKVSGFPIKHHFQHWVRQAPGKGLEWMGWSDPEIGDTEYASKFQGRVTMTEDTSTDTAYMELSSLRSEDTAVYYCATGHTTYKFDFWGQGTTVTVSS
VL 1: DIQMTQSPSSLSASVGDRVTITCKASQDVHTAVAWYQQKPGKAPKLLIYWASTRWTGVPSRFSGSGSGTDFTLTISSLQPEDFATYYCQQYSDYHWTFGGGTKVEIK
VH 2: B1 VH with N54H, G57H, G100H, Y105H
VL 2: DIQMTQSPSSLSASVGDRVTITCRASHDIHNYLNWYQQKPGKAPKLLIYYTSRLLSGVPSRFSGSGSGTDFTLTISSLQPEDFATYYCQQGDTLPYTFGGGTKVEIK
notes: Biparatopic
B3: mabA_NpH1 (antibody, V domains shown)
VH: B1 VH with D111H
VL: B2 VL 2 with H27Q, H30S, Y50H
B4: mabB//mabA_pH1 (bispecific antibody, V domains shown)
VH 1: B2 VH 1 with H100D
VL 1: B2 VL 1
VH 2: B1 VH with N54H, G57H, G100H, Y105H
VL 2: B2 VL 2
notes: Biparatopic
B5: mabA_pH2 (antibody, V domains shown)
VH: B1 VH with G57H, G100H, D103H
VL: B2 VL 2 with H30S
B6: mabA_pH3 (antibody, V domains shown)
VH: B1 VH with N54H, G57H, G100H, Y105H
VL: B2 VL 2 with H30S
B7: mabB//mabA_pH2 (bispecific antibody, V domains shown)
VH 1: B2 VH 1
VL 1: B2 VL 1
VH 2: B1 VH with N54H, G57H, G100H, Y105H
VL 2: B2 VL 2 with H30S
notes: Biparatopic
B8: amH852/bsH656/abL152 (bispecific antibody)
heavy 1: not shown
heavy 2: not shown
VL: B2 VL 2 with H27E, D28G, N31D, Y32A, N34A, Y50W, T51A, R53T, L55E
B9: mabB//mabA_pH3-BS01 (bispecific antibody, human IgG1, kappa)
heavy 1: QVQLVQSGAEVKKPGASVKVSCKVSGFPIKHHFQHWVRQAPGKGLEWMGWSDPEIGDTEYASKFQGRVTMTEDTSTDTAYMELSSLRSEDTAVYYCATGHTTYKFDFWGQGTTVTVSSASTKGPSVFPLAPSSRSTSESTAALGCLVKDYFPEPVTVSWNSGALTSGVHTFPAVLQSSGLYSLSSVVTVPSSSLGTKTYTCNVDHKPSNTKVDKRVEPKSCDKTHTCPPCPAPELLGGPSVFLFPPKPKDTLMISRTPEVTCVVVDVSQEDPEVQFNWYVDGVEVHNAKTKPREEQFNSTYRVVSVLTVLHQDWLNGKEYKCKVSNKGLPSSIEKTISKAKGQPREPQVYTLPPSREEMTKNQVSLTCLVKGFYPSDIAVEWESNGQPENNYKTTPPYLDSDGSFFLYSKLTVDKSRWQQGNVFSCSVMHEALHNHYTQESLSLSP
light 1: DIQMTQSPSSLSASVGDRVTITCKASQDVHTAVAWYQQKPGKAPKLLIYWASTRWTGVPSRFSGSGSGTDFTLTISSLQPEDFATYYCQQYSDYHWTFGGGTKVEIKRTVAAPSVFIFPPSDEQLKSGTASVVCLLNNFYPREAKVQWKVDNALQSGNSQESVTEQDSKDSTYSLSSTLTLSKADYEKHKVYACEVTHQGLSSPVTKSFNRGEC
heavy 2: EVQLVQSGAEVKKPGASVKVSCKASGYTFTDYNMHWVRQAPGQGLEWMGEINPHSGHAGYNQKFKGRVTMTTDTSTSTAYMELRSLRSDDTAVYYCARLHYDDIHDDWYFDVWGQGTTVTVSSASTKGPSVFPLAPSSRSTSESTAALGCLVKDYFPEPVTVSWNSGALTSGVHTFPAVLQSSGLYSLSSVVTVPSSSLGTKTYTCNVDHKPSNTKVDKRVEPKSCDKTHTCPPCPAPELLGGPSVFLFPPKPKDTLMISRTPEVTCVVVDVSQEDPEVQFNWYVDGVEVHNAKTKPREEQFNSTYRVVSVLTVLHQDWLNGKEYKCKVSNKGLPSSIEKTISKAKGQPREPQVYTLPPSRKEMTKNQVSLTCLVKGFYPSDIAVEWESNGQPENNYKTTPPYLDSDGSFFLYSKLTVDKSRWQQGNVFSCSVMHEALHNHYTQKSLSLSP
light 2: not shown
B10: mabB//mabA_NpH3-BS01 (bispecific antibody, human IgG1, kappa)
heavy 1: B9 heavy 1 with H100D
light 1: B9 light 1 with S92H, H95P
heavy 2: B9 heavy 2 with H54N, H57G, H100G, H105Y
light 2: not shown
B11: mabB//mabA_pH1-BS01 (bispecific antibody, human IgG1, kappa)
heavy 1: B9 heavy 1 with H100D
light 1: B9 light 1
heavy 2: B9 heavy 2
light 2: not shown
B12: mabB//mabA_pH2-BS01 (bispecific antibody, human IgG1, kappa)
heavy 1: B9 heavy 1
light 1: B9 light 1
heavy 2: B9 heavy 2
light 2: not shown

How the values were obtained:
[1] = biological target: T1, Recombinant mouse sclerostin; assay: cell-based or functional assay
[2] = biological target: T1, Recombinant mouse sclerostin; assay: SPR (Biacore T200), 37 C, dissociation at pH 5.8 of complex formed at pH 7.4
Protocol: (§1) The affinity of anti-sclerostin variants binding to human, cynomolgus monkey (cyno), rat, or mouse sclerostin at pH 7.4 and pH 5.8 were determined at 37 degrees C. using Biacore T200 instrument (GE Healthcare). Anti-human Fc (GE Healthcare) was immobilized onto all flow cells of a CM4 sensor chip using amine coupling kit (GE Healthcare). All antibodies and analytes were prepared in ACES pH7.4 or pH 5.8 buffer containing 20 mM ACES, 150 mM NaCl, 1.2 mM CaCl₂, 0.05% Tween 20, 0.005% NaN₃. Each antibody was captured onto the sensor surface by anti-human Fc. […] Sensor surface was regenerated each cycle with 3M MgCl₂.
(§2) The pH dependent interaction assessment was determined by a modified Biacore assay. Briefly, an additional dissociation phase at pH5.8 was integrated into the Biacore assay immediately after dissociation phase at pH7.4. This is to assess the pH-dependent dissociation between antibody and antigen from the complexes formed at pH7.4. The dissociation rate at pH5.8 buffer was determined by processing and fitting data using Scrubber 2.0 (BioLogic Software) curve fitting software.

[3] = biological target: T2, Recombinant cynomolgus monkey sclerostin; assay: as above
Protocol: as §1, §2

[4] = biological target: T3, Recombinant human sclerostin; assay: as above
Protocol: as §1, §2

[5] = biological target: T4, Recombinant rat sclerostin; assay: as above
Protocol: as §1, §2

[6] = biological target: T3, Recombinant human sclerostin; assay: cell-based or functional assay
[7] = biological target: T1, Recombinant mouse sclerostin; assay: cell-based or functional assay; remark: listed apart in the source

| Binder | MFI of pHrodo-Red-labelled mouse sclerostin taken up into MDCK cells expressing human Fc gamma receptor IIB and human FcRn (flow cytometry) [1] | koff [2] | further results |
| --- | --- | --- | --- |
| B1 | 561 MFI | – | – |
| B2 | – | 0.0516 s⁻¹ | – |
| B3 | – | 0.00191 s⁻¹ | koff [3]: 0.00182 s⁻¹; koff [4]: 0.00214 s⁻¹; koff [5]: 0.000805 s⁻¹ |
| B4 | – | 0.0347 s⁻¹ | – |
| B5 | – | 0.00805 s⁻¹ | koff [5]: 0.00486 s⁻¹ |
| B6 | – | 0.000932 s⁻¹ | – |
| B7 | – | 0.0186 s⁻¹ | – |
| B8 | – | – | IC50 (read off the curve); Wnt1-induced TCF/LEF luciferase reporter in HEK293T cells, % Inhibition of human SOST [6]: ~10 µg/mL |
| B9 | 2130 MFI | – | IC50 (read off the curve); Wnt1-induced TCF/LEF luciferase reporter in HEK293T cells, % Inhibition of mouse SOST [7]: ~10 µg/mL |
| B10 | 653 MFI | – | – |
| B11 | 2430 MFI | – | IC50 (read off the curve); Wnt1-induced TCF/LEF luciferase reporter in HEK293T cells, % Inhibition of mouse SOST [7]: ~8 µg/mL |
| B12 | 1960 MFI | – | IC50 (read off the curve); Wnt1-induced TCF/LEF luciferase reporter in HEK293T cells, % Inhibition of mouse SOST [7]: ~9 µg/mL |
